In US6432920B1, “Nck SH3 binding peptides” (Cytogen Corporation, priority 1994, dated 2002):

Legend:
[1] = target: T1, Src SH3-GST (Homo sapiens, UniProt P12931); assay: Biotinylated synthetic peptide binding ELISA to immobilized Src SH3-GST; settings: not tested
T1 construct: Bacterially expressed Src SH3 glutathione-S-transferase (Src-GST) fusion protein was purified from bacterial lysates; made in house; host or cells: bacteria (pGEX vector)

[2] = target: T2, Yes SH3 (Homo sapiens, UniProt P07947); assay: Phage clone binding to immobilized GST-SH3 (anti-phage ELISA); settings: FIG. 14
T2 construct: a construct expressing the SH3 domain of Yes was obtained from Dr. Marius Sudol (Rockefeller University); made in house; host or cells: bacteria (pGEX vector)
T2 sequence (P07947 91-152 limits assumed): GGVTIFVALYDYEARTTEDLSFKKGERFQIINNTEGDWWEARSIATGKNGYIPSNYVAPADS
Method: Indeed, the ability of isolated phage clones to bind to several SH3 domains derived from a variety of different proteins can be investigated by the manner described above. GST-SH3 fusion proteins containing SH3 domains from a variety of different proteins are bound to microliter wells. An aliquot of the aforementioned phage stocks (50 μL) is introduced into wells containing the different GST-SH3 fusion proteins. […] From these experiments, the relative specificity of different Src SH3 binding clones for SH3 domains derived from other proteins is determined.
To evaluate the binding of isolates to various targets proteins, enzyme-linked-immuno-assays (ELISA) were also performed. […] Plates are read with a plate reader (Molecular Devices, Menlo Park, Calif.) at 405 nm wavelength.
Library screens were performed as described in Sparks, A., B., et al., in Methods in Enzymology, (1995) 255:498-509. […] The wells were washed five times with PBS+0.1% Tween 20, and bound phage were detected by anti-phage ELISA according to the manufacturer's instructions (Pharmacia, Piscataway, N.J.). […]
To explore further the capacity of SH3 domains to discriminate between different SH3 ligands, we investigated the binding of phage expressing various peptide ligands to a panel of SH3 domains. […] The wells were washed several times, and bound phage were detected with an anti-phage antibody (see FIG. 14). […]

[3] = target: T1, Src SH3-GST; assay: Phage clone binding to immobilized GST-SH3 (elution titering / anti-phage ELISA); settings: FIG. 14
Method: Library screens were performed as previously described. Kay, B. K., et al., in Gene (1993) 128:59-65. Briefly, 1'10^11 pfu TSAR 9, TSAR 12, or R8C phage in Buffer A were incubated in a Src SH3-GST-coated well for 2 hours. The wells were washed, and bound phage were eluted with 100 μL 50 mM glycine-HCl (pH 2.2), transferred to a new well, and neutralized with […] 200 mM NaHPO4 (pH 7.0). Recovered phage were used to infect 1×10^9 DH5αF′ E. coli cells in 20 mL 2×YT; the infected cells were grown overnight, resulting in a 1000- to 10,000-fold amplification of phage titer. Amplified phage were panned twice more, as above, excepting the amplification step. Binding phage recovered after the third round of panning were plated at a low density on a lawn of DH5αF′ E. coli cells to yield isolated plaques for clonal analysis. […]
Indeed, the ability of isolated phage clones to bind to several SH3 domains derived from a variety of different proteins can be investigated by the manner described above. […] From these experiments, the relative specificity of different Src SH3 binding clones for SH3 domains derived from other proteins is determined.
To evaluate the binding of isolates to various targets proteins, enzyme-linked-immuno-assays (ELISA) were also performed. […] Plates are read with a plate reader (Molecular Devices, Menlo Park, Calif.) at 405 nm wavelength. […]

Row | Sequence | surmised binding to a variety of SH3 domains [1] | cross-reactivity of Yes SH3 domain with phage clone selected with another SH3 domain [2] | cross-reactivity of Src SH3 domain with phage clone selected with another SH3 domain [3]
1 | RSTPAPPVPPRTTR | strong but generic binding |  | 
2 | MPPPVPPRPPGTL |  | cross-reacted | cross-reacted
